Assay results: patent US20100158924A1, “Expression of the cysteine protease legumain in vascular and inflammatory diseases” (Wyeth, LLC, priority 2006, published 2010)
* marks the point of attachment. Fmoc = O=C(OCC1c2ccccc2-c2ccccc21)*

What was measured:
legumain = details: background literature; cited from earlier work
mouse legumain = molecular target: T1, mouse legumain (Mus musculus, UniProt O89017); test: HEK293 cell-surface legumain activity assay (Z-AAN-MCA hydrolysis); format: cell-based; details: inhibitor at 100 nM, live HEK293 cells overexpressing mouse legumain, pH 5.8, FIG. 7
T1 construct: expressed in transfected cells; host or cells: HEK293 cells infected with adenovirus
T1 sequence (O89017 18-325): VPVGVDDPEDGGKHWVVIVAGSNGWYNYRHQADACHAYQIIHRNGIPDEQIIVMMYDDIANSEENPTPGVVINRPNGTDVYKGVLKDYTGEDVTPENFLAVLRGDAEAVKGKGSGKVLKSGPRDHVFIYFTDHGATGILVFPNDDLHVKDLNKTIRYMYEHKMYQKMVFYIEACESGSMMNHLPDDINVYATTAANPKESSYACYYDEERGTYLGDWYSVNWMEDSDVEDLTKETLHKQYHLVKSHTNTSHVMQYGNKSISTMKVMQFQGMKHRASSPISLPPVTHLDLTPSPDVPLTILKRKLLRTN
Experimental: HEK293 cells were plated in 96-well black tissue culture plate (BD Biosciences) and infected with adenovirus expressing mouse legumain at MOI of 10. 24 hours post infection, the cells were washed once with legumain assay buffer [39.5 mM citric acid, 125 mM Na2HPO4 (pH 5.8), 1 mM EDTA, 0.8% NaCl], and 50 μl of assay buffer containing 10 nM of the substrate Z-AAN-MCA (Peptide Institute, Louisville, Ky.) was added to each well. The protease inhibitors cystatin C(R&D Systems, Minneapolis, Minn.) or E64 (Sigma) were included in the assay buffer at a concentration of 100 nM. The plates were incubated at 37° C. for 10 min and measured for fluorescence in a VICTOR 3™ fluorescence plate reader (PerkinElmer, Wellesley, Mass.) using an excitation filter of 360 nm and an emission filter of 460 nm. Repeated measurements were carried out once every 5 min over a period of 20 min at room temperature. The increase of fluorescence over time was plotted.

HUVECs [1] = test: In vitro wound-healing assay, HUVECs; format: cell-based, human
Experimental: (§1) HEK293 cells (ATCC, Manassas, Va.) used at passage 10 and HUVECs (Cambrex, Walkersville, Md.) used at passage 3 were seeded onto single-chamber slides (Lab-Tek cat# 177410, Campbell, Calif.). HEK293 cells were cultured to >80% confluence in DMEM supplemented with 10% FBS and 1% penicillin/streptomycin/L-glutamine (Cat# 10378-016, Gibco, Invitrogen, Carlsbad, Calif.), and HUVECs were grown to >90% confluence in EGM (Cat# CC-3124, Cambrex, East Rutherford, N.J.). After washing the cells in serum-free medium, the monolayers were mechanically wounded using a cell scraper (Cat# 3010, Costar [Corning], Fisher Scientific, Pittsburgh, Pa.) to obtain a rectangular denuded area of 2.0×1.7 cm^2. Wounded cells were then incubated in serum-free medium supplemented with 0.05% delipidized BSA (BD Biosciences, Bedford, Mass.) and with VEGF (10 ng/mL, R&D Systems, Minneapolis, Minn.) or legumain (10 ng/mL or 25 ng/mL, R&D Systems, Minneapolis, Minn.) for 24 hours (HEK293 cells) or 20 hours (HUVECs). Wound healing was quantified by measuring the number of cells present in the area of the initial wound using a luminescent cell viability assay (CellTiter-Glo® Assay, Promega, Madison, Wis.).

HUVECs [2] = test: Modified Boyden chamber Matrigel invasion assay, HUVECs; format: cell-based, human
Excerpt: In a modified Boyden chamber assay, 25,000 serum starved HUVECs loaded into the top chamber were allowed to invade a Matrigel coated PET membrane ([…], Becton Dickinson, BioCoat Angiogenesis System: Endothelial Cell Invasion) in response to purified legumain added to the bottom chamber. Cells that invaded through the Matrigel matrix were quantified using a luminescent cell viability assay (CellTiter-Glo® Assay, Promega, Madison, Wis.). VEGF was used a positive control.

primary human monocytes = test: Human monocytes migration assay (modified Boyden chamber); format: cell-based; details: for chemoattractant function: data not shown
Experimental: Human monocytes were isolated from the blood of healthy donors using the negative selection method with the Monocyte Isolation Kit (Miltenyi Biotech) according to manufacturer's instructions. The purity of isolated monocytes was confirmed by flow cytometry on CD 14-stained cells. Cells were tested in a modified Boyden chamber assay using Multi Screen 96-well filtration plate (Millipore, 5.0 μm pore size). Serum-starved monocytes were added to the top chamber (20,000 cells/well), and serum-free culture medium was added to the bottom chamber with or without purified legumain (R&D Systems). VEGF (R&D Systems) was used as a positive control. Cells that migrated into the bottom chamber were quantified using a luminescent cell viability assay (CellTiter-Glo® Assay, Promega, Madison, Wis.) at 2 hours.

HEK293 cells = test: In vitro wound-healing assay, HEK293 cells; format: cell-based, human; details: legumain at 10 ng/mL and 25 ng/mL, 24 hours, p<0.05, FIG. 8
Experimental: as §1

Molecule: CC(C)C[C@H](NC(=O)[C@H]1O[C@@H]1C(=O)O)C(=O)NCCCCN=C(N)N (relative stereo) [E64, trans-epoxysuccinyl-L-leucylamido-(4-guanidino)butane, reference compound]
- effect on legumain activity (legumain): unaffected
- inhibition of cell-surface legumain activity (mouse legumain): not

Molecule: [Cu+2] [Cu2+]
- effect on legumain activity (legumain): inhibition

Molecule: [Hg+2] [Hg2+]
- effect on legumain activity (legumain): inhibition

Molecule: Cc1cccc(C)c1C(=O)OCC(=O)C(CC(N)=O)NC(=O)OCc1ccccc1 (stereo not shown) [MV026630, 2,6-dimethyl-benzoic acid 3-benzyloxycarbonylamino-4-carbamoyl-2-oxo-butyl ester]
- effect on legumain activity (legumain): inhibit

Molecule: C[C@H](NC(=O)[C@H](Cc1ccccc1)NC(=O)OCc1ccccc1)C(=O)C=[N+]=[N-] [Z-Phe-Ala-CHN2]
- effect on legumain activity (legumain): unaffected

Molecule: CC(=O)N[C@@H](CC(C)C)C(=O)N[C@@H](CC(C)C)C(=O)N[C@H](C=O)CCCNC(=N)N [leupeptin]
- effect on legumain activity (legumain): unaffected

Molecule: O=S(=O)(O)c1cc[c]([Hg][Cl])cc1 [p-chloromercuribenzene-sulfonic acid]
- effect on legumain activity (legumain): inhibition

Molecule: Fmoc-AENK-NH2
- effect on legumain activity (legumain): inhibitor

Molecule: VEGF [reference compound]
- increase in migration compared with legumain at 25 ng/mL (HUVECs [1]; VEGF at 10 ng/mL, positive control, FIG. 9): same extent
- invasion response compared with 25 ng/mL legumain (HUVECs [2]; 10 ng/mL VEGF, 22 hour period): similar
- number of migrated cells compared with legumain at 25 ng/mL (primary human monocytes; VEGF at 10 ng/mL, positive control): similar

B1: ovocystatin: cystatin reported to inhibit legumain (protein, UniProt P01038 24-139, looked up)
Cystatin: SEDRSRLLGAPVPVDENDEGLQRALQFAMAEYNRASNDKYSSRVVRVISAKRQLVSGIKYILQVEIGRTTCPKSSGDLQSCEFHDEPEMAKYTTCTFVVYSIPWLNQIKLLESKCQ
- effect on legumain activity (legumain): inhibited

B2: legumain: purified proform of the lysosomal cysteine protease legumain (R&D Systems), tested as chemoattractant (protein)
chain: T1 sequence (O89017 18-325)
- cell migration relative to control (HUVECs [1]; legumain at 25 ng/mL, 20 hours, p<0.05, FIG. 9): significant increase in cell migration
- number of cells invading a Matrigel coated membrane (HUVECs [2]; 22 hour period, FIG. 10): dose-dependent increase
- cell invasion relative to control (HUVECs [2]; legumain at 25 ng/mL, p<0.05, FIG. 10): significant increase in cell invasion
- fold increase in migration of monocytes relative to control (primary human monocytes; 25 ng/mL, 2 hours): 2.3 fold
- migration of human monocytes towards legumain (primary human monocytes; Boyden chamber, 2 hours, FIG. 6): dose-dependent increase
- chemoattractant function (primary human monocytes): retain the chemoattractant function
- minimal effective concentration of legumain (primary human monocytes; migration of primary human monocytes, Boyden chamber, 2 hours): 25 ng/mL
- cell migration relative to control (HEK293 cells): significant increase in cell migration

B3: cystatin C: protease inhibitor cystatin C (R&D Systems) (protein, UniProt P01034 27-146, looked up)
Cystatin-C: SSPGKPPRLVGGPMDASVEEEGVRRALDFAVGEYNKASNDMYHSRALQVVRARKQIVAGVNYFLDVELGRTTCTKTQPNLDNCPFHDQPHLKRKAFCSFQIYAVPWQGTMTLSKSTCQDA
- effect on legumain activity (legumain): inhibited
- inhibition of cell-surface legumain activity (mouse legumain): inhibited

B4: heat-denatured form: heat-denatured form of legumain (protein, UniProt Q99538 18-323, looked up)
Legumain: VPIDDPEDGGKHWVVIVAGSNGWYNYRHQADACHAYQIIHRNGIPDEQIVVMMYDDIAYSEDNPTPGIVINRPNGTDVYQGVPKDYTGEDVTPQNFLAVLRGDAEAVKGIGSGKVLKSGPQDHVFIYFTDHGSTGILVFPNEDLHVKDLNETIHYMYKHKMYRKMVFYIEACESGSMMNHLPDNINVYATTAANPRESSYACYYDEKRSTYLGDWYSVNWMEDSDVEDLTKETLHKQYHLVKSHTNTSHVMQYGNKTISTMKVMQFQGMKRKASSPVPLPPVTHLDLTPSPDVPLTIMKRKLMNTN
modifications: heat-denatured
notes: heat-denatured form of legumain
- chemoattractant function (primary human monocytes): retain the chemoattractant function

B5: cystatin M: cystatin reported to inhibit legumain (protein, UniProt Q15828 29-149, looked up)
Cystatin-M: RPQERMVGELRDLSPDDPQVQKAAQAAVASYNMGSNSIYYFRDTHIIKAQSQLVAGIKYFLTMEMGSTDCRKTRVTGDHVDLTTCPLAAGAQQEKLRCDFEVLVVPWQNSSQLLKHNCVQM
- effect on legumain activity (legumain): inhibited
